Key:
[1] = biological target: NY-ESO-1 157-165 peptide … (SEQ ID NO: 2) on HLA-A2 of peptide-pulsed cells; test: cell-based or functional assay
[2] = biological target: … (SEQ ID NO: 23) on HLA-A2 of pulsed T2 cells; test: cell-based or functional assay
[3] = biological target: … (SEQ ID NO: 24) on HLA-A2 of pulsed T2 cells; test: cell-based or functional assay
[4] = biological target: … (SEQ ID NO: 25) on HLA-A2 of pulsed T2 cells; test: cell-based or functional assay
[5] = biological target: … (SEQ ID NO: 26) on HLA-A2 of pulsed T2 cells; test: cell-based or functional assay
[6] = biological target: … (SEQ ID NO: 27) on HLA-A2 of pulsed T2 cells; test: cell-based or functional assay
[7] = biological target: … (SEQ ID NO: 28) on HLA-A2 of pulsed T2 cells; test: cell-based or functional assay
[8] = biological target: NY-ESO-1 peptide on HLA-A*02:01 (human); test: IFN-gamma ELISA; PBL transduced with 1G4-LY, after one OKT3 stimulation, peptide-pulsed T2 cells; full-length, on cells

1G4-LY TCR showed an IFN-γ (pg/ml); Donor H after expanding numbers of cells, T2 + 0.1 ng/µl peptide [1] of 89 pg/mL, an IFN-γ (pg/ml); Donor H after expanding numbers of cells, T2 + 1 ng/µl peptide [1] of 512 pg/mL and an IFN-γ (pg/ml); Donor H after expanding numbers of cells, T2 + 10 ng/µl peptide [1] of 2970 pg/mL. For the same substance, the IFN-γ (pg/ml); Donor H after expanding numbers of cells, T2 + 100 ng/µl peptide [1] was 4340 pg/mL, the IFN-γ (pg/ml); Donor H after stimulation with OKT3, T2 + 0.1 ng/µl peptide [1] was 1400 pg/mL and the IFN-γ (pg/ml); Donor H after stimulation with OKT3, T2 + 1 ng/µl peptide [1] was 1710 pg/mL. For the same substance, the IFN-γ (pg/ml); Donor H after stimulation with OKT3, T2 + 10 ng/µl peptide [1] was 3020 pg/mL, the IFN-γ (pg/ml); Donor H after stimulation with OKT3, T2 + 100 ng/µl peptide [1] was 3780 pg/mL and the IFN-γ (pg/ml); Donor K PBL, T2 + 1 ng/µL peptide [1] was 678 pg/mL. The IFN-γ (pg/ml); Donor K PBL, T2 + 10 ng/µL peptide [1] was 3760 pg/mL, the IFN-γ (pg/ml); Donor L PBL, T2 + 1 ng/µL peptide [1] was 184 pg/mL and the IFN-γ (pg/ml); Donor L PBL, T2 + 10 ng/µL peptide [1] was 754 pg/mL. It also gave an IFN-γ (pg/ml); Patient 1 PBL S1D7, T2 + 0.1 ng/ml peptide [1] of 0 pg/mL, an IFN-γ (pg/ml); Patient 1 PBL S1D7, T2 + 1 ng/ml peptide [1] of 677 pg/mL and an IFN-γ (pg/ml); Patient 1 PBL S1D7, T2 + 10 ng/ml peptide [1] of 1090 pg/mL. It also gave an IFN-γ (pg/ml); Patient 1 PBL S1D7, T2 + 100 ng/ml peptide [1] of 1600 pg/mL, an IFN-γ (pg/ml); Patient 1 PBL S1D7, T2 + 1 µg/ml peptide [1] of 2170 pg/mL and an IFN-γ (pg/ml); Patient 1 expanded PBL S2D9, T2 + 0.1 ng/ml peptide [1] of 1330 pg/mL. For the same substance, the IFN-γ (pg/ml); Patient 1 expanded PBL S2D9, T2 + 1 ng/ml peptide [1] was 7260 pg/mL, the IFN-γ (pg/ml); Patient 1 expanded PBL S2D9, T2 + 10 ng/ml peptide [1] was 16200 pg/mL and the IFN-γ (pg/ml); Patient 1 expanded PBL S2D9, T2 + 100 ng/ml peptide [1] was 21600 pg/mL. For the same substance, the IFN-γ (pg/ml); Patient 1 expanded PBL S2D9, T2 + 1 µg/ml peptide [1] was 30600 pg/mL, the IFN-γ (pg/ml); Patient 2 PBL S1D7, T2 + 0.1 ng/ml peptide [1] was 40 pg/mL and the IFN-γ (pg/ml); Patient 2 PBL S1D7, T2 + 1 ng/ml peptide [1] was 291 pg/mL. For the same substance, the IFN-γ (pg/ml); Patient 2 PBL S1D7, T2 + 10 ng/ml peptide [1] was 879 pg/mL, the IFN-γ (pg/ml); Patient 2 PBL S1D7, T2 + 100 ng/ml peptide [1] was 1280 pg/mL and the IFN-γ (pg/ml); Patient 2 PBL S1D7, T2 + 1 µg/ml peptide [1] was 2440 pg/mL. The IFN-γ (pg/ml); Patient 2 expanded PBL S2D9, T2 + 0.1 ng/ml peptide [1] was 662 pg/mL, the IFN-γ (pg/ml); Patient 2 expanded PBL S2D9, T2 + 1 ng/ml peptide [1] was 2500 pg/mL and the IFN-γ (pg/ml); Patient 2 expanded PBL S2D9, T2 + 10 ng/ml peptide [1] was 6800 pg/mL. For the same substance, the IFN-γ (pg/ml); Patient 2 expanded PBL S2D9, T2 + 100 ng/ml peptide [1] was 10600 pg/mL, the IFN-γ (pg/ml); Patient 2 expanded PBL S2D9, T2 + 1 µg/ml peptide [1] was 19400 pg/mL and the lowest peptide concentration on T2 cells that was recognized (IFN-γ) [1] was 0.1 ng/mL. It also gave an IFN-γ (pg/ml); Donor K PBL, T2 + 1 ng/µL peptide [2] of 1780 pg/mL, an IFN-γ (pg/ml); Donor K PBL, T2 + 10 ng/µL peptide [2] of 3270 pg/mL and an IFN-γ (pg/ml); Donor L PBL, T2 + 1 ng/µL peptide [2] of 370 pg/mL. For the same substance, the IFN-γ (pg/ml); Donor L PBL, T2 + 10 ng/µL peptide [2] was 1380 pg/mL, the IFN-γ (pg/ml); Donor K PBL, T2 + 1 ng/µL peptide [3] was 0 pg/mL and the IFN-γ (pg/ml); Donor K PBL, T2 + 10 ng/µL peptide [3] was 0 pg/mL. The IFN-γ (pg/ml); Donor L PBL, T2 + 1 ng/µL peptide [3] was 225 pg/mL, the IFN-γ (pg/ml); Donor L PBL, T2 + 10 ng/µL peptide [3] was 185 pg/mL and the IFN-γ (pg/ml); Donor K PBL, T2 + 1 ng/µL peptide [4] was 0 pg/mL. The IFN-γ (pg/ml); Donor K PBL, T2 + 10 ng/µL peptide [4] was 0 pg/mL, the IFN-γ (pg/ml); Donor L PBL, T2 + 1 ng/µL peptide [4] was 148 pg/mL and the IFN-γ (pg/ml); Donor L PBL, T2 + 10 ng/µL peptide [4] was 294 pg/mL. The IFN-γ (pg/ml); Donor K PBL, T2 + 1 ng/µL peptide [5] was 884 pg/mL, the IFN-γ (pg/ml); Donor K PBL, T2 + 10 ng/µL peptide [5] was 1110 pg/mL and the IFN-γ (pg/ml); Donor L PBL, T2 + 1 ng/µL peptide [5] was 220 pg/mL. For the same substance, the IFN-γ (pg/ml); Donor L PBL, T2 + 10 ng/µL peptide [5] was 297 pg/mL, the IFN-γ (pg/ml); Donor K PBL, T2 + 1 ng/µL peptide [6] was 457 pg/mL and the IFN-γ (pg/ml); Donor K PBL, T2 + 10 ng/µL peptide [6] was 5670 pg/mL. For the same substance, the IFN-γ (pg/ml); Donor L PBL, T2 + 1 ng/µL peptide [6] was 208 pg/mL, the IFN-γ (pg/ml); Donor L PBL, T2 + 10 ng/µL peptide [6] was 1030 pg/mL and the IFN-γ (pg/ml); Donor K PBL, T2 + 1 ng/µL peptide [7] was 0 pg/mL. For the same substance, the IFN-γ (pg/ml); Donor K PBL, T2 + 10 ng/µL peptide [7] was 0 pg/mL, the IFN-γ (pg/ml); Donor L PBL, T2 + 1 ng/µL peptide [7] was 82 pg/mL and the IFN-γ (pg/ml); Donor L PBL, T2 + 10 ng/µL peptide [7] was 97 pg/mL. For the same substance, the lowest peptide concentration recognised [8] was less than 0.1 ng/mL.
wild-type human anti-NY-ESO-1 TCR (1G4) showed an IFN-γ (pg/ml); Patient 1 PBL S1D7, T2 + 0.1 ng/ml peptide [1] of 99 pg/mL, an IFN-γ (pg/ml); Patient 1 PBL S1D7, T2 + 1 ng/ml peptide [1] of 851 pg/mL and an IFN-γ (pg/ml); Patient 1 PBL S1D7, T2 + 10 ng/ml peptide [1] of 1520 pg/mL. It also gave an IFN-γ (pg/ml); Patient 1 PBL S1D7, T2 + 100 ng/ml peptide [1] of 2480 pg/mL, an IFN-γ (pg/ml); Patient 1 PBL S1D7, T2 + 1 µg/ml peptide [1] of 2450 pg/mL and an IFN-γ (pg/ml); Patient 1 expanded PBL S2D9, T2 + 0.1 ng/ml peptide [1] of 1280 pg/mL. For the same substance, the IFN-γ (pg/ml); Patient 1 expanded PBL S2D9, T2 + 1 ng/ml peptide [1] was 6990 pg/mL, the IFN-γ (pg/ml); Patient 1 expanded PBL S2D9, T2 + 10 ng/ml peptide [1] was 13500 pg/mL and the IFN-γ (pg/ml); Patient 1 expanded PBL S2D9, T2 + 100 ng/ml peptide [1] was 19400 pg/mL. For the same substance, the IFN-γ (pg/ml); Patient 1 expanded PBL S2D9, T2 + 1 µg/ml peptide [1] was 26400 pg/mL, the IFN-γ (pg/ml); Patient 2 PBL S1D7, T2 + 0.1 ng/ml peptide [1] was 41 pg/mL and the IFN-γ (pg/ml); Patient 2 PBL S1D7, T2 + 1 ng/ml peptide [1] was 397 pg/mL. For the same substance, the IFN-γ (pg/ml); Patient 2 PBL S1D7, T2 + 10 ng/ml peptide [1] was 860 pg/mL, the IFN-γ (pg/ml); Patient 2 PBL S1D7, T2 + 100 ng/ml peptide [1] was 1100 pg/mL and the IFN-γ (pg/ml); Patient 2 PBL S1D7, T2 + 1 µg/ml peptide [1] was 1960 pg/mL. For the same substance, the IFN-γ (pg/ml); Patient 2 expanded PBL S2D9, T2 + 0.1 ng/ml peptide [1] was 747 pg/mL, the IFN-γ (pg/ml); Patient 2 expanded PBL S2D9, T2 + 1 ng/ml peptide [1] was 3550 pg/mL and the IFN-γ (pg/ml); Patient 2 expanded PBL S2D9, T2 + 10 ng/ml peptide [1] was 7350 pg/mL. The IFN-γ (pg/ml); Patient 2 expanded PBL S2D9, T2 + 100 ng/ml peptide [1] was 12700 pg/mL and the IFN-γ (pg/ml); Patient 2 expanded PBL S2D9, T2 + 1 µg/ml peptide [1] was 19500 pg/mL.
